In PMC3906830 (The Febs Journal, 2013) one finds Kd data, which are given here for one molecule.

The test deals with T1, mature myostatin (human, UniProt O14793 267-375).
T1 sequence (looked up): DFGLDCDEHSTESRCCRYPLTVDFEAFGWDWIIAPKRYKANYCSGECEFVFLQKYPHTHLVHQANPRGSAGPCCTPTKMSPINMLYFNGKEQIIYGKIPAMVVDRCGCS
The experiment in a line: SPR.

B1: N-terminal region of myostatin prodomain (PRO43-115) (domain or fragment, human, UniProt O14793 43-115, looked up)
chain: TWRQNTKSSRIEAIKIQILSKLRLETAPNISKDVIRQLLPKAPPLRELIDQYDVQRDDSSDGSLEDDDYHATT
In general, Kd refers to the equilibrium constant for the complex coming apart. Read a high Kd as lower affinity. For the molecule B1, the Kd came out at 3.7 µM. This counts as single-digit micromolar.
